Experimental data from patent publication US20240026028A1 (JIANGSU HENGRUI PHARMACEUTICALS, published 2024).

B1: positive control antibody U3 (antibody, human IgG1, kappa, V domains shown)
VH: QVQLQQWGAGLLKPSETLSLTCAVYGGSFSGYYWSWIRQPPGKGLEWIGEINHSGSTNYNPSLKSRVTISVETSKNQFSLKLSSVTAADTAVYYCARDKWTWYFDLWGRGTLVTVSS
VL: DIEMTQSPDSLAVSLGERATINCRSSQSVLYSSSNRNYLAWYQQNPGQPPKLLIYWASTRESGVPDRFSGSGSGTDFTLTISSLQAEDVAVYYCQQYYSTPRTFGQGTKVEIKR
notes: also called U1-59 (WO2007077028A2)
B2: fully human antibody molecule HER3-29 (antibody, human IgG1, kappa, V domains shown)
VH: QVQLVQSGGGLVQPGRSLRLSCAASGFTFDDYAMHWVRQAPGKGLEWVSGISWNSGSIGYADSVKGRFTISRDNAKNSLYLQMNSLRAEDTALYYCAKEGLPGLDYWGQGTLVTVSS
VL: DIQMTQSPSSLSASIGDRATITCRASQHVGTYLNWYQQKPGKTPKLLISGAANLQSGVPSRFSGSGSGTDFTLTISSLQPEDFATYYCQQSYNTPPFSFGQGTKVEIKR
notes: Human IgG1 / kappa; From a fully human natural phage library, expressed in HEK293 and Expi-CHO-S cells; also called antibody HER3-29

Columns and labels:
[1] = molecular target: T1, HER3 protein (free, coated on the ELISA plate) (UniProt P21860 20-643, limits assumed); assay: ELISA, HER3 protein coated on the plate, antibody titrated
T1 construct: also called free HER3 protein
T1 sequence (P21860 20-643 limits assumed): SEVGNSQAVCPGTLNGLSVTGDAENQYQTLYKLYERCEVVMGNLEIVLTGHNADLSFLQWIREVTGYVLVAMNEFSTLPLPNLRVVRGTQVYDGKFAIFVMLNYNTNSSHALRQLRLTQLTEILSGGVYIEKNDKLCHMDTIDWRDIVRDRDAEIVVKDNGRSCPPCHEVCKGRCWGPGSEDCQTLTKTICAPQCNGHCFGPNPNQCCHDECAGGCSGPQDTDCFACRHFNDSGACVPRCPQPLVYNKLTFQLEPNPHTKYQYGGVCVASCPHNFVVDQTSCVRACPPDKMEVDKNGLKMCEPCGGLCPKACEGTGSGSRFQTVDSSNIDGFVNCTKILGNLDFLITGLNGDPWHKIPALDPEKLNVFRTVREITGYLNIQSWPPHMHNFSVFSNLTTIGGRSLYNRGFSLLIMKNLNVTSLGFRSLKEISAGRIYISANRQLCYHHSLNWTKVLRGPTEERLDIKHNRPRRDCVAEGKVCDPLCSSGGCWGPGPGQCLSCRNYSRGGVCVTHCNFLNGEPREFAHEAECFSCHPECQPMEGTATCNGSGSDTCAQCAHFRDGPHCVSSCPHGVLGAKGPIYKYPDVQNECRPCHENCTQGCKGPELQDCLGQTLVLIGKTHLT
Experimental: HER3 protein was diluted to 1 μg/mL with pH 7.4 PBS buffer (Shanghai BasalMedia Technologies Co., LTD., B320) and added to a 96-well microplate at 100 μL/well. The plate was incubated at 4° C. overnight. After the liquid was discarded, 300 μL of 5% skim milk (BD, 232100) diluted with PBS was added to each well for blocking, and the plate was incubated at 37° C. for 2 h. After the blocking was completed, the blocking solution was discarded; after the plate was washed 3 times with PBST buffer (pH 7.4 PBS containing 0.1% tween-20), 100 μL of a gradient diluted antibody solution was added to each well, and the plate was incubated at 37° C. for 1 h. After the incubation was completed, the plate was washed 3 times with PBST buffer, and 100 μL of 1:8000 diluted Mouse Anti-HuMan IgG (H+L) (Jackson ImmunoResearch, 209-035-088) was added to each well. The plate was incubated at 37° C. for 1 h. After the plate was washed 3 times with PBST buffer, 100 μL of TMB chromogenic substrate (KPL, 5120-0077) was added to each well, and the plate was incubated at room temperature for 10-15 min. The reaction was terminated by adding 50 μL of 1 M H₂SO₄ to each well. The absorbance readings at 450 nm were taken on a microplate reader, and the binding curves of the antibodies to antigen were fitted with software, as shown in FIG. 1.

[2] = molecular target: HER3 recombinantly expressed on CHO-K1 cells (human, UniProt P21860 20-643); assay: cell-based or functional assay
HER3 recombinantly expressed on CHO-K1 cells, sequence (P21860 20-643): as the sequence (P21860 20-643 limits assumed) above

[3] = molecular target: T2, HER3 expressed by MCF7 cells (human, UniProt P21860 20-1342); assay: flow cytometry on MCF7 cells, geometric mean fluorescence
T2 construct: whole, on cells; Endogenous HER3 on MCF7 cells; also called cells expressing HER3 protein
T2 sequence (P21860 20-1342): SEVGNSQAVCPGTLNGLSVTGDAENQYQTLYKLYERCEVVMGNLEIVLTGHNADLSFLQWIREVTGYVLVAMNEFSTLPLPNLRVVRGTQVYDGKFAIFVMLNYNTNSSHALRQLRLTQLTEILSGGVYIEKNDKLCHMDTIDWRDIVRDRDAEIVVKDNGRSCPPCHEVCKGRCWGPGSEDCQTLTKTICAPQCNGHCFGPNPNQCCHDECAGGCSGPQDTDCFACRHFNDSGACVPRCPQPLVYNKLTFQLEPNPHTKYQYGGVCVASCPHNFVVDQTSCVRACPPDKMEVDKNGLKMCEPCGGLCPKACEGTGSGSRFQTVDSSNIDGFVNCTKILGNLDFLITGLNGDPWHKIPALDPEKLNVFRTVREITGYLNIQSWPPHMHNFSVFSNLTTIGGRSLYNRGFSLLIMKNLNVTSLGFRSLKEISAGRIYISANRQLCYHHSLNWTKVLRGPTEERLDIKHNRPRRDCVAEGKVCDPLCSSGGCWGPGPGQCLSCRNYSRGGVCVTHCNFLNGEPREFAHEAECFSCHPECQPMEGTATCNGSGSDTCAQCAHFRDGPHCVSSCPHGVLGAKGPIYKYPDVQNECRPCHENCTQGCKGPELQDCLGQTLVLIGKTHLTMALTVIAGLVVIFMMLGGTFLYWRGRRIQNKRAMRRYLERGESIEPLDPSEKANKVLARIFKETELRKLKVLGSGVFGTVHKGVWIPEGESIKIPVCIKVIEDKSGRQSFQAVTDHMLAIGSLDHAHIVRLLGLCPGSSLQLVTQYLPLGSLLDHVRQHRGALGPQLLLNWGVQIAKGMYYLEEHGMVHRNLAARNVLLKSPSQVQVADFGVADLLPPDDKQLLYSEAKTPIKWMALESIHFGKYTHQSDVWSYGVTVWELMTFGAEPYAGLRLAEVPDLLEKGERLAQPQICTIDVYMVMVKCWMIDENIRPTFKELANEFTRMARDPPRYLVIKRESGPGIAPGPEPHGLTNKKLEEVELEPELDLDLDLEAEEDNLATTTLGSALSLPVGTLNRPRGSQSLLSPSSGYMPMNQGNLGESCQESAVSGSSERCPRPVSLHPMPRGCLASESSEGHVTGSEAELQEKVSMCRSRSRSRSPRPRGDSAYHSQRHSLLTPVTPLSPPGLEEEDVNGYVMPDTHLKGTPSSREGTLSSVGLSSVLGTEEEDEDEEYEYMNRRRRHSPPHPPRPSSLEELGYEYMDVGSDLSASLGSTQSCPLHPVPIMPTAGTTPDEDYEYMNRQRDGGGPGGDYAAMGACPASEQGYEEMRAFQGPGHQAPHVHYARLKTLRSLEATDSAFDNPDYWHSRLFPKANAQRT
Experimental: MCF7 cells (ATCC, HTB-22) were suspended in FACS buffer (2% fetal bovine serum (Gibco, 10099141) pH 7.4 PBS (Sigma, P4417-100TAB)) to give a 1×10⁶ cells/mL cell suspension, which was then added to a 96-well round-bottom plate at 100 μL/well. After centrifugation and removal of the supernatant, the test antibody that was diluted with FACS buffer to different concentrations was added at 50 μL/well. The plate was incubated in the dark in a 4° C. refrigerator for 1 h. The plate was washed 3 times with FACS buffer by centrifugation at 300 g, and Alexa Fluor 488 Goat anti-HuMan IgG (H+L) (invitrogen, A-11013) at working concentration was then added. The plate was incubated in the dark in a 4° C. refrigerator for 40 min. The plate was washed 3 times with FACS buffer by centrifugation at 300 g and tested on a BD FACSCantoII flow cytometer for geometric mean fluorescence intensity.

| Binder | EC50 [1] | IC50 (nM) (DT3C antibody endocytosis assay, cell killing) [2] | EC50 [3] |
| --- | --- | --- | --- |
| B1 | 0.56 nM | 2.81 nM | 0.249 nM |
| B2 | 0.14 nM | 0.51 nM | 0.057 nM |
